Results reported in patent US20240344138A1, “TARGETED THERAPIES IN CANCER” (Feng Biosciences, Inc, priority 2021, published 2024).

Key:
[1] = system: stage III or IV of ovarian cancer; conditions: ovarian cancer stage III or IV after initial surgery; bevacizumab added to carboplatin and paclitaxel versus without; cited from earlier work
[2] = system: advanced colorectal cancers metastatic to liver (mCRC); conditions: 3L+ mCRC metastatic to liver; cited from earlier work
mCRC = conditions: phase II single arm study; cited from earlier work
[3] = system: metastatic colorectal cancer patients; assay: Retrospective analysis of anti-angiogenic therapy (bevacizumab) in metastatic colorectal cancer by TME phenotype; format: in vivo, human; conditions: A and IS patients
Procedure: The analysis includes 60 colorectal cancer tumor samples.
To test if TME phenotypes correlate with clinical outcomes when patients are treated with an angiogenesis inhibitor, tumor stroma RNA gene signatures are analyzed from archival tissues collected from 60 colorectal cancer patients (30 left-sided, 30 right-sided) using an ANN classifier such as the TME Panel-1 classifier. The correlation between each TME phenotype is tested against clinical outcome data. In A and IS patients, the use of bevacizumab confers gains in comparison to patients classified to IA and ID TME phenotypes: in A and IS patients median PFS and OS shifts to 15 months and 39 months, respectively. Progression-free survival and OS data in IA and ID patients are consistent with historical values. Overall, the A and IS TME phenotypes correlate specifically with improved clinical outcomes with angiogenesis inhibitors and has a predictive effect with respect to PFS.

MDSC functions = conditions: pre-clinical models; cited from earlier work
[4] = system: advanced solid tumors in colorectal, triple-negative breast cancer, gastric, and ovarian cancers; assay: Phase 2 open-label basket study of navicixizumab monotherapy or with paclitaxel or irinotecan, retrospective analysis by TME phenotype; format: in vivo, human; conditions: combined A and IS groups
Procedure: A retrospective analysis of a signal-finding Phase 2 clinical trial is conducted. Patient samples from thirty patients in a phase 2, multicenter, open-label basket study of navicixizumab monotherapy or in combination with the chemotherapeutics paclitaxel or irinotecan in patients with advanced solid tumors in colorectal, triple-negative breast cancer, gastric, and ovarian cancers. Patients in the combined A and IS groups that received navicixizumab monotherapy have an ORR greater than 40%. Patients in the combined A and IS groups that receive navicixizumab and chemotherapy have an ORR greater than 50%.

[5] = system: colorectal cancer patients; assay: Clinical trial of navicixizumab and chemotherapy in colorectal cancer, outcome by TME phenotype; format: in vivo, human
Procedure: A clinical trial is run to show benefit of anti-angiogenesis therapy in CRC by identifying patients based on their stromal phenotypes. RNA gene signatures are analyzed from biopsy samples prior to treatment with navicixizumab and chemotherapy (such as paclitaxel, FOLFOX, FOLFIRI, etc.). The stromal phenotypes are correlated with ORR, PFS, and OS. The analysis includes 40 colorectal cancer patients with treated with navicizumab and chemotherapy in the first-line setting.

[6] = system: non-small cell lung cancer (NSCLC); assay: Retrospective ANN analysis of Phase 3 trial of tislelizumab with pemetrexed and a platinum agent; format: in vivo, human; conditions: biomarker positive group (IA or IS)
Excerpt: A retrospective analysis of 100 RNA signatures from a Phase 3 clinical trial of non-small cell lung cancer (NSCLC) with the anti-PD-1 checkpoint inhibitor tislelizumab in combination with the chemotherapeutic agents pemetrexed and a platinum agent (cisplatin or carboplatin) is run using the ANN method. […] After the retrospective ANN analysis, the biomarker positive group (IA or IS) is shown to have a PFS of 15.0 months with the combination therapy of tislelizumab and chemotherapy.

[7] = system: non-small cell lung cancer (NSCLC); conditions: cited from earlier work
[8] = system: colorectal cancer in dMMR or MSI-H status patients; assay: Clinical trial of bavituximab and an anti-PD-1 checkpoint inhibitor in dMMR or MSI-H colorectal cancer, outcome by TME phenotype; format: in vivo, human
Procedure: A clinical trial is run to determine whether colorectal cancer TME phenotypes correlate to clinical responses when patients with dMMR or MSI-H status are treated with a combination of a checkpoint inhibitor and bavituximab. The analysis includes 40 colorectal cancer tumor samples.
An anti-PD-1 checkpoint inhibitor is known to increase PFS and OS in dMMR or MSI-H status patients with advanced colorectal cancer (CRC), compared to chemotherapy. CRC patients with dMMR or MSI-H have the option of anti-PD-(L)1 after advancement on appropriate front-line therapy. Patients are classified according to an ANN method such as the TME Panel-1 classifier. […] RNA gene signatures are analyzed from biopsy samples prior to treatment with anti-PD-1. The TME phenotypes are correlated with ORR and with 20-week PFS. […] 40 patients are enrolled, 10 in each of the 4 TME phenotypes. The correlation between each tumor TME phenotype is tested against clinical outcome data. In IA or IS patients the use of bavituximab and anti-PD-(L)1 confers gains in comparison to patients classified to angiogenic (A), and immune desert (ID) TME phenotypes as shown in TABLE 18.

melanoma = assay: Phase 2 trial of adjuvant bavituximab and radiation after neoadjuvant immune checkpoint inhibitor, outcome by TME phenotype; format: in vivo, human
Procedure: A phase 2 clinical trial is run to determine whether melanoma tumor microenvironment phenotypes correlate to clinical responses when patients are treated with adjuvant Bavituximab and radiation following neoadjuvant immune checkpoint inhibitor treatment and surgical resection of stage 2b lymph nodes. The analysis includes samples from 20 patients. RNA gene signatures are analyzed from tumor samples acquired as surgical resections and TME phenotypes are determined. Patients are followed for ORR.
Melanoma patients receive a course of neoadjuvant immune checkpoint inhibitor (anti-PD-(L)1—i.e., an inhibitor to PD-1 or PD-L1) therapy and their stage 2b lymph nodes are resected. Radiation and Bavituximab are given as adjuvant therapy. The TME phenotypes from resected tumor samples are correlated to ORR. […] (20) patients are enrolled, with equal representation across the 4 stromal phenotypes (5 in each phenotype). The correlation between each TME phenotype is tested against clinical outcome data. In biomarker positive patients, represented by immune active (IA) and immune suppressed (IS) phenotypes, the use of the regimen of Bavituximab/radiation confers benefit in comparison to patients classified as biomarker negative, comprised of angiogenic (A) and immune desert (ID) TME phenotype classes, as shown in the TABLE 33.

## carboplatin and paclitaxel
[1]
  Progression-free survival: 13 months

## trifluoridine/tipiracil
[2]
  median OS (mOS): ~7 months
  median PFS (mPFS): ~2 months

## ramucirumab plus FOLFIRI: anti-angiogenic ramucirumab plus the chemotherapeutic FOLFIRI
mCRC
  ORR: 58%
  OS: 20.4 mos
  PFS: 11.5 months

## bevacizumab
[3]
  median OS: 39 months
  median PFS: 15 months
[1]
  Progression-free survival: 18 months

## CNC(=O)c1cc(Oc2ccc(NC(=O)Nc3ccc(Cl)c(C(F)(F)F)c3)c(F)c2)ccn1 [regorafenib]
[2]
  median OS (mOS): ~7 months
  median PFS (mPFS): ~2 months

## CCCc1nn(C)c2c(=O)[nH]c(-c3cc(S(=O)(=O)N4CCN(C)CC4)ccc3OCC)nc12 [sildenafil]
MDSC functions
  effect on MDSC functions: significantly inhibited the MDSC functions

B1: navicixizumab (antibody, chains of the INN, looked up, V domains shown)
VH: QVQLVQSGAEVKKPGASVKISCKASGYSFTAYYIHWVKQAPGQGLEWIGYISNYNRATNYNQKFKGRVTFTTDTSTSTAYMELRSLRSDDTAVYYCARDYDYDVGMDYWGQGTLVTVSS
VL: DIVMTQSPDSLAVSLGERATISCRASESVDNYGISFMKWFQQKPGQPPKLLIYAASNQGSGVPDRFSGSGSGTDFTLTISSLQAEDVAVYYCQQSKEVPWTFGGGTKVEIK
VH2: QVQLVQSGAEVKKPGASVKVSCKASGYTFTNYWMHWVRQAPGQGLEWMGDINPSNGRTSYKEKFKRRVTLSVDKSSSTAYMELSSLRSEDTAVYFCTIHYDDKYYPLMDYWGQGTLVTVSS
VL2: B1 VL
notes: anti-VEGF/anti-DLL4 bispecific antibody
[4]
  ORR: greater than 40%

B2: navicixizumab and chemotherapy: anti-VEGF/anti-DLL4 bispecific antibody navicixizumab with chemotherapy (such as paclitaxel, FOLFOX, FOLFIRI, irinotecan) (antibody, chains of the INN, looked up, V domains shown)
VH: B1 VH
VL: B1 VL
VH2: B1 VH2
VL2: B1 VL
modifications: plus chemotherapy
[5]; A (n = 10)
  ORR (%): 90%
  OS (months): 26 months
  PFS (months): 15 months
[5]; IA (n = 10)
  ORR (%): 30%
  OS (months): 15 months
  PFS (months): 10 months
[5]; ID (n = 10)
  ORR (%): 45%
  OS (months): 20 months
  PFS (months): 13 months
[5]; IS (n = 10)
  ORR (%): 80%
  OS (months): 25 months
  PFS (months): 16 months
[4]
  ORR: greater than 50%

B3: tislelizumab plus chemotherapy: anti-PD-1 checkpoint inhibitor tislelizumab with pemetrexed and a platinum agent (cisplatin or carboplatin) (antibody, chains of the INN, looked up)
heavy: QVQLQESGPGLVKPSETLSLTCTVSGFSLTSYGVHWIRQPPGKGLEWIGVIYADGSTNYNPSLKSRVTISKDTSKNQVSLKLSSVTAADTAVYYCARAYGNYWYIDVWGQGTTVTVSSASTKGPSVFPLAPCSRSTSESTAALGCLVKDYFPEPVTVSWNSGALTSGVHTFPAVLQSSGLYSLSSVVTVPSSSLGTKTYTCNVDHKPSNTKVDKRVESKYGPPCPPCPAPPVAGGPSVFLFPPKPKDTLMISRTPEVTCVVVAVSQEDPEVQFNWYVDGVEVHNAKTKPREEQFNSTYRVVSVLTVVHQDWLNGKEYKCKVSNKGLPSSIEKTISKAKGQPREPQVYTLPPSQEEMTKNQVSLTCLVKGFYPSDIAVEWESNGQPENNYKTTPPVLDSDGSFFLYSKLTVDKSRWQEGNVFSCSVMHEALHNHYTQKSLSLSLG
light: DIVMTQSPDSLAVSLGERATINCKSSESVSNDVAWYQQKPGQPPKLLINYAFHRFTGVPDRFSGSGYGTDFTLTISSLQAEDVAVYYCHQAYSSPYTFGQGTKLEIKRTVAAPSVFIFPPSDEQLKSGTASVVCLLNNFYPREAKVQWKVDNALQSGNSQESVTEQDSKDSTYSLSSTLTLSKADYEKHKVYACEVTHQGLSSPVTKSFNRGEC
modifications: plus pemetrexed and platinum chemotherapy
[6]
  PFS: 15.0 months
[7]; tislelizumab plus chemotherapy versus chemotherapy alone
  hazard ratio (PFS): 0.645
[7]; without stratification into stromal phenotypes
  median PFS: 9.7 mo

B4: bavituximab and an anti-PD-1 checkpoint inhibitor: phosphotidylserine-targeting antibody bavituximab in combination with anti-PD-1 (antibody, chains of the INN, looked up, V domains shown)
VH: EVQLQQSGPELEKPGASVKLSCKASGYSFTGYNMNWVKQSHGKSLEWIGHIDPYYGDTSYNQKFRGKATLTVDKSSSTAYMQLKSLTSEDSAVYYCVKGGYYGHWYFDVWGAGTTVTVSS
VL: DIQMTQSPSSLSASLGERVSLTCRASQDIGSSLNWLQQGPDGTIKRLIYATSSLDSGVPKRFSGSRSGSDYSLTISSLESEDFVDYYCLQYVSSPPTFGAGTKLELK
modifications: plus anti-PD-1 checkpoint inhibitor
[8]; A (n = 10)
  ORR (%): 0%
  PFS % at 20 weeks: 0%
[8]; IA (n = 10)
  ORR (%): 90%
  PFS % at 20 weeks: 100%
[8]; ID (n = 10)
  ORR (%): 0%
  PFS % at 20 weeks: 0%
[8]; IS (n = 10)
  ORR (%): 90%
  PFS % at 20 weeks: 100%

B5: Bavituximab plus radiation (antibody, chains of the INN, looked up, V domains shown)
VH: B4 VH
VL: B4 VL
modifications: plus radiation
melanoma; Biomarker Negative (n = 10)
  Overall response rate (ORR): 60%
melanoma; Biomarker Positive (n = 10)
  Overall response rate (ORR): 90%
melanoma; TME phenotype A (n = 5)
  Overall response rate (ORR): 60%
melanoma; TME phenotype IA (n = 5)
  Overall response rate (ORR): 80%
melanoma; TME phenotype ID (n = 5)
  Overall response rate (ORR): 60%
melanoma; TME phenotype IS (n = 5)
  Overall response rate (ORR): 100%
